Data reported in patent publication US20070036793A1, “Methods for use of an lkb1/strad7mo25 complex” (priority 2003, published 2007).

Columns and labels:
AMPK = target: T1, AMPK (Homo sapiens, UniProt Q13131); assay: Activation and Thr-172 phosphorylation of endogenous AMPK in HeLa cells with or without stably expressed LKB1; format: cell-based; settings: earlier unpublished results
T1 construct: Endogenous AMPK was immunoprecipitated from the cell extracts and assayed; endogenous in cells; host or cells: HeLa cells (control, or stably expressing wild type or kinase-dead LKB1)

[1] = target: T2, GST-LKB1-STRADα-MO25α complex (Mus musculus, UniProt Q9WTK7); assay: LKB1 kinase assay with AMPK T-loop peptide substrate (Example 3); format: biochemical; settings: peptide 10-2000 μM, 0.1 mM ATP, 30 min at 30° C.
T2 construct: Constructs expressing the full length wild type and kinase dead mouse LKB1 have been described previously; made in house; host or cells: HEK-293 / HEK-293T cells, co-transfected
T2 sequence (Q9WTK7 1-433 limits assumed): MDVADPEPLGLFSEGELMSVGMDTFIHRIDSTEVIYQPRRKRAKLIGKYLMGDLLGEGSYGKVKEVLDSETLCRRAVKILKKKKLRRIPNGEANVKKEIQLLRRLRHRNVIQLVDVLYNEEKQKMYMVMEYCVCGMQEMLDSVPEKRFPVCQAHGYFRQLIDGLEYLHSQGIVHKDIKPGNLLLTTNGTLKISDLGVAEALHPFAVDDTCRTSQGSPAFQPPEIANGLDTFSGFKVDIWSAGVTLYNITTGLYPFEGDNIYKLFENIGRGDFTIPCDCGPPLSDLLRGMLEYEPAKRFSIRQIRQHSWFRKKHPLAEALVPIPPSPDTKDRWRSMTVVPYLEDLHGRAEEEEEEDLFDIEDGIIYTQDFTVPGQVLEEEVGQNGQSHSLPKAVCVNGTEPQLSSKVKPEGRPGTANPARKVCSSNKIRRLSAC
T2 sequence (Q7RTN6 1-431 partner): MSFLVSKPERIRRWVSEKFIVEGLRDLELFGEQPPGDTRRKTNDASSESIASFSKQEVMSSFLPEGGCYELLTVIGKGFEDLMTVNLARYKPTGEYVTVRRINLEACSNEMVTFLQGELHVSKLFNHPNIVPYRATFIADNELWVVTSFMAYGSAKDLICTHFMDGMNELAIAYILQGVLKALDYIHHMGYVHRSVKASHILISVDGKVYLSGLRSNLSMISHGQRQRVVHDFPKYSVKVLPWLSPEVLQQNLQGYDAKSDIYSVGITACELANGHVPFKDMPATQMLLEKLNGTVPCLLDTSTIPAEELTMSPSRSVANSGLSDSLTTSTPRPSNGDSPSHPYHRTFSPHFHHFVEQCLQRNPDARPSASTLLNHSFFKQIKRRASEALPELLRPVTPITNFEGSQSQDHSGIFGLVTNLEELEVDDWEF
T2 sequence (Q9Y376 1-341 partner): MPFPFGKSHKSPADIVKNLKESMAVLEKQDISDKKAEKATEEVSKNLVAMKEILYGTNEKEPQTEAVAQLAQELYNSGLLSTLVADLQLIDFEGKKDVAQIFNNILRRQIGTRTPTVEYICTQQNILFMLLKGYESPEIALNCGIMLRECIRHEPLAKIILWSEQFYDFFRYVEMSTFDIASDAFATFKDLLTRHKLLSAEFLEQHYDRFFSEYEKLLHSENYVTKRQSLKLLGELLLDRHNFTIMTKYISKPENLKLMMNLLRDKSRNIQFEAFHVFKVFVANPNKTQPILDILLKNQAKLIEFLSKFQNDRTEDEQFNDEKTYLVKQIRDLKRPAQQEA
Procedure: FIG. 20: Km and Vmax for a peptide substrate (termed AMPKtide). Assay conditions are described in Example 3.
An assay may be performed as follows. Other assays using such a substrate peptide may be used, for example in a high throughput format. The standard assay (50 μl) contained: 0.3 μg of purified GST-LKB1-STRADα-MO25α complex, 50 mM Tris/HCl pH 7.5, 0.1 mM EGTA, 0.1% (by vol) 2-mercaptoethanol, 10 mM magnesium acetate, 0.1 mM [γ^32P]ATP (˜200 cpm/pmol) and T-loop peptide ([…], 10-2000 μM). The assays were carried out for 30 min at 30° C., then terminated by pipetting the reaction mixture onto a 1 cm square of p81 paper, which was washed with 6 changes of 250 ml of 50 mM phosphoric acid (2 min each wash), the paper washed once in 200 ml of acetone and dried. Radioactivity bound to the p81 paper was quantitated by Cherenkov counting. 1 unit of activity is the amount of enzyme that catalyses the phosphorylation of 1 nmol of peptide per minute.

T1 sequence (Q13131 whole entry): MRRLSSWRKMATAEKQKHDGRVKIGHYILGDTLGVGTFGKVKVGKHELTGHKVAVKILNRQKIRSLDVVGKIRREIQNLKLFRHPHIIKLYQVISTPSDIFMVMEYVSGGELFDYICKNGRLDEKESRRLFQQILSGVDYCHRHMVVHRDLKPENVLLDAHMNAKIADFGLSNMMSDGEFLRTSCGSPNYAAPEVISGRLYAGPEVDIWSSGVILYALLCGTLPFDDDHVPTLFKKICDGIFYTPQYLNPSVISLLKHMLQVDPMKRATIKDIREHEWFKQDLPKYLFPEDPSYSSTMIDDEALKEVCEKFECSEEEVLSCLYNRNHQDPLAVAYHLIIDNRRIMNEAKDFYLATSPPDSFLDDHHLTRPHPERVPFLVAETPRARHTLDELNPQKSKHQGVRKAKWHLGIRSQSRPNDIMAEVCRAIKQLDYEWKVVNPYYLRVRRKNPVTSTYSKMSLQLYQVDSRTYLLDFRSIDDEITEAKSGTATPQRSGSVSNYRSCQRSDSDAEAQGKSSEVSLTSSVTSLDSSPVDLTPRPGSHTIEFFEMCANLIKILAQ
T1 sequence (Q9Y478 2-270 partner limits assumed): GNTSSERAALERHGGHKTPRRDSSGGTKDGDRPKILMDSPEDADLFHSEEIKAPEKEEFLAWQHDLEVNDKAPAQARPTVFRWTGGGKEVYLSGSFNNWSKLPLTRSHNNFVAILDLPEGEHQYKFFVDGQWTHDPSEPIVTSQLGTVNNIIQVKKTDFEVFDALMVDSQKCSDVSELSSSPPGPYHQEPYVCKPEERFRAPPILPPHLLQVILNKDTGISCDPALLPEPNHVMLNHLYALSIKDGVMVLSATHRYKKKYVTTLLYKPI
T1 sequence (P54619 whole entry partner): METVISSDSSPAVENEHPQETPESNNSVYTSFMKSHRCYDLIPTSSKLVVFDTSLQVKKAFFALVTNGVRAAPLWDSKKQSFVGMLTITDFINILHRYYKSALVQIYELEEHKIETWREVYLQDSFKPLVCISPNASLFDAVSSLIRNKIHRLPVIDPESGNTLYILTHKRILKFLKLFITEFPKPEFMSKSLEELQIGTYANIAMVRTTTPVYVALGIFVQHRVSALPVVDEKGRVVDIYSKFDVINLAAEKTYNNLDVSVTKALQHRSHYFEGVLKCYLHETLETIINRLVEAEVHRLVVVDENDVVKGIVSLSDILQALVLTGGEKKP

Row | Compound | activation of AMPK (AMPK) | Km [1] [µM] | Vmax [1]
1 | CN(C)C(=N)N=C(N)N [metformin] | not activated |  | 
2 | LSNMMSDGEFLRTSCGSPNRRR [AMPKtide, human AMPKα1 residues 163-181 with 3 additional Arg residues added to the C-terminal] |  | 1800 ± 480 | 23.4±3.5
